Assay results published in the RNAGym collection of RNA variant scans (doi:10.1073/pnas.2313332121).

B1: TPR t1 (parent)
chain: GACCAAUCUGCCCUCAGAGCUCGAGAACAUCUUCGGAUGCAGAGGAGGCAGGCUUCGGUGGCGCGAUAGCGCCAACGUCCUCAACCUCCAAUGCAUCCCACCACAUGAUGAUGCCUGAAGAGCCUUGGUUUUUUG

Variants of: B1
Assay: polymerase ribozyme fitness, log enrichment relative to wild type (log ratio); higher = more active; in vitro selection for triplet polymerase activity
In short: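 Genotype fitness is the logarithm of its enrichment divided by wild-type enrichment, using inverse-variance-weighted averages of replicates. That logarithm is base 2. Enrichment was measured by Illumina sequencing of input and output libraries from one triplicate in vitro selection round, with frozen incubation at −7 °C, on PCR-built, transcribed mutant libraries of each subunit of a heterodimeric triplet polymerase ribozyme, retaining genotypes with ≥10 input reads and ≥1 read per output.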

| Variant | polymerase ribozyme fitness (log ratio) |
| --- | --- |
| C76G U109C A119U C123A | -6.47 |
| C15G G17A | -3.99 |
| A43U U112A | -0.216 |
| C73U G120U | 0.0471 |
| G71U C80A U116G G117U A119U | -7.09 |
| G36U G60C A100U | -2.77 |
| A50G U130C | 0.163 |
| C72U A83C C114U | -1.96 |
| C4U A18G G58A G69U | -2.44 |
| A2G C8A G63A G110A | -3.11 |
| C49U C73A C102U | -2.56 |
| C62U A103G | -5.08 |
| G69A C76A C123U | -5 |
| U7C U14G G48U | -2.35 |
| G63A C79U A91U | -3.61 |
| C31A A46U C72A | -5.82 |
| G47A C62U G113U | -4.52 |
| A46U C49U G63U C115U | -5.27 |
| A6C G44C G61A C80A U112A | -4.74 |
| C64U G122A | -0.796 |
| A5G A18G C79A U81C C89U G93U G120C C124U | -6.53 |
| U9C G69U A83U | -0.05 |
| C115A G135U | -0.547 |
| C53U U96G G113C | -2.77 |

| Variant | polymerase ribozyme fitness (log ratio) |
| --- | --- |
| C13U A29U U55A G60A C101G | -4.15 |
| U21A G23A C76G G113U | -7.66 |
| A46C U92C U106G C115U U125G U132A | -6.92 |
| A46C A50U C72A | -1.15 |
| C11U G23A G61A G113U | -6.08 |
| C11U C13U C20G G107A G117U G120U | -3.09 |
| G61C C62G G63C U112A | -4.63 |
| U59A U125G | -0.415 |
| C4A C8U | -0.352 |
| C8U G63U A90U G113C | -3.6 |
| C8G A29U U132C | -1.95 |
| C28A A50C C73A G113A | -4.23 |
| G44A C70G | -4.21 |
| G71C C85U C94U U132A | -2.18 |
| C20U G48A C53U C99U | -5.43 |
| G35A C62A A119G | -4.46 |
| A83C U109C | -4.51 |
| A84G C115U | -2.86 |
| U87A C88G | -1.1 |
| G10A A37U G71C C104U | -0.936 |
| A91U C104A | -4.59 |
| G60C A84C C86U | -1.01 |
| G48A C70U G71U | -0.828 |
| G19A C73U C82U C114A | -1.84 |

| Variant | polymerase ribozyme fitness (log ratio) |
| --- | --- |
| C28U C88U | -1.61 |
| G61A C82A | -0.883 |
| A50U G57C A119U | -1.85 |
| C12U C20A C22G U112A | -3.37 |
| C20A G61C A121G G128U | -5.15 |
| G93U U109C | -5.62 |
| C85G C88U C123A | -0.368 |
| G10C G60U C82A U96A G107U A119U | -6.51 |
| C62U C115A | 0.00277 |
| A26G A83C A90G A121C | -0.49 |
| G47A C72U A121C U129A | 0.0942 |
| C76G U130A | -0.718 |
| C62G A118G | -1.44 |
| G61U C79A C102U | -3.26 |
| A6U U38G C73U U125A | -1.49 |
| A24G C123G | -0.893 |
| C3U C123U | 0.881 |
| C72U C76G | -0.525 |
| A68G G110U | -3.66 |
| G10U C72G A91G | -1.95 |
| G39U G61U A121C | 1.22 |
| C85G C88A C101U C124U | -0.871 |
| G45A G48U G93A | -3.09 |
| G52A C56U C72U G113C U125A | -2.88 |

| Variant | polymerase ribozyme fitness (log ratio) |
| --- | --- |
| C56A G69A G117U | -6.41 |
| U32G A43C C73U C97G G117A | -6.86 |
| G45A G48C C53U C62U C102U C124G U131C | -1.71 |
| C20U C53U G113C | -1.84 |
| G17U G61A | -2.18 |
| A41G G52A G61C C85U C124A U126C | -5.73 |
| A43C C53U G110C | -7.24 |
| A90C | -1.08 |
| G57C C73U C101A A111C | -0.202 |
| C20G C64A C98U A105C C114U U116A | -6.79 |
| A68G U131A | -3.5 |
| C15U A43U C72G C88U A91C G120C | -1.58 |
| C8A A74U C104A C124G | -0.357 |
| C56G C85A | -2.26 |
| U21A G47C | -1.67 |
| C49G A103U C124U | -4.18 |
| C40U G63A C102G C114G G122A | -8.78 |
| C73A C94U U130A | -0.716 |
| C11G C34U C86G A118U | -5.02 |
| C11U C73U | -0.94 |
| U7A C88G | -0.397 |
| U59A A121C | 2.1 |
| G63A G77U C79U A100C | -2.62 |
| U9G C15U U21C A83C | -0.505 |

| Variant | polymerase ribozyme fitness (log ratio) |
| --- | --- |
| C40G C89G G93A | -2.6 |
| G110A C124A | -0.401 |
| C56G C72G | -2.27 |
| C3G U7A G63C A95C | -2.41 |
| C62G C115U | -2.93 |
| A75U G113A G127C | -2.56 |
| U9G C56G | -0.492 |
| C12A C49U G69C C80G C115G | -8.79 |
| G35A U78A | -4.53 |
| C20U A37U C79U U112A | 0.591 |
| C40U A84U G117U C123G | -1.94 |
| C56G G61A | -2.31 |
| C13A A46U U106C | -2.81 |
| G48C C49A C56U U87A U96A G120C | -2.17 |
| G44U C89A | 0.219 |
| G48A C73U C82U G93U | -1.54 |
| G60U C114U C123U | -3.67 |
| A50C C76U C88U | -1.73 |
| C12A A27G G71U G93A | -6.11 |
| C104U C123G | 1.92 |
| A46U G48U | -2.29 |
| U59G | -0.0797 |
| C12A U32A C34G C102U | -6.82 |
| C22A A111C | -4.49 |

| Variant | polymerase ribozyme fitness (log ratio) |
| --- | --- |
| U55C U87G G135U | -1.63 |
| C12A G71U C89U C101U C123U G128C | -1.52 |
| U9A C62G C97U U109G | -7.26 |
| C89U G120A U129G | -1.07 |
| G25C A111U | -6.92 |
| G36C G47U G110C | -5.66 |
| C56U G57U | -0.86 |
| C11A C49G | -1.67 |
| G44U C53U | -1.59 |
| C98U U126C | -1.99 |
| U14C U106A G110A U112A | -3.36 |
| G47C C80U | -3.51 |
| C114G C123U | -4.31 |
| U21G C22A A27U A95U C123A | -5.39 |
| C4G C62A C99A G113U | -6.39 |
| G51C C101U | -3.94 |
| G17A G71C | -3.64 |
| A29U A118U | -1.3 |
| U112A U133G | 1.43 |
| C22U A37G G61U U112C U126G G128A | -4.46 |
| G71U U109A | -4.43 |
| G45A C62U U96G | -1.28 |
| C15A G25C C34G C64U G113A | -7.48 |
| C70U C101U | -0.854 |

| Variant | polymerase ribozyme fitness (log ratio) |
| --- | --- |
| A5U U126A | -0.78 |
| G36U C53U A105C | -2.88 |
| C4A A90U | -2.78 |
| A37U C73A U87C | 0.034 |
| G35A C102A | -4.61 |
| C22U U55A | -3.49 |
| G65A A68G A121U C123G | -5.3 |
| A41C C86A U106A | -1.11 |
| A37U C40U U87G | -1.01 |
| C13A U14A G44A C56U | -2.36 |
| G71U U81G C114A | -5.63 |
| A37C G52C G60A C86U | -2.95 |
| G117C C124A G127U | -4.29 |
| A46C U87G A100U | -0.0504 |
| C11U C40G G48U G61C C97U G120U | -4.02 |
| U87A C97U C98U G120A | -2.92 |
| G39C U78C | -1.14 |
| A2G C62U G110A C114G C124A | -7.09 |
| U30C C70U C82G | -6.42 |
| A27U C49U C79G C86U | -4.94 |
| C13U C64A | -6 |
| A24G C49U G60U U129A | -3.61 |
| U9G A118U G120U G122A | 1.52 |
